Measured values reported in patent US20110112279A1.

Target: receptor for STOP-1 on the cell surface (unidentified; HeLa, HT1080, HUVEC and MDA-MB-435 cells) (human)
Assay: flow cytometry on MDA-MB-435 cells, flag-tagged STOP-1 alone, anti-flag M2-FITC detection; detection antibody alone gave approximately 7.99

geometric mean value of the signal intensity: 13.2
Substance: flag-tagged full length human STOP-1 (from UniProt Q96CG8 31-243) (ligand)
